Assay results taken from patent US20180207291A1.
Where two headings read alike, the source gives them in different places. Blank lines part the entries; values can stand above or below the substance they belong to.

What was measured:
[1] = target: Mouse Enolase 241-260 citrullinated peptide presented by HLA-DR4 (mouse; human)
[2] = target: Human Enolase 241cit peptide as offered to human PBMCs (human)
[3] = target: Human Enolase 241 wt peptide as offered to human PBMCs (human)
[4] = target: Human Enolase 241cit peptide as offered to human PBMCs (human); remark: listed apart in the source

IFNγ Elispot (/million splenocytes) [1]: 180
Substance: Splenocytes of HLA-DR4 transgenic mice immunised with a DNA construct encoding mouse enolase (cells without a defined receptor)

Thymidine proliferation assay, proliferation index (proliferation index) [2]: 2.7
Substance: PBMCs of healthy donor 2 (cells without a defined receptor)

Thymidine proliferation assay, proliferation index (proliferation index) [2]: 28.6
Thymidine proliferation assay, proliferation index (proliferation index) [3]: 1.2
Substance: PBMCs of healthy donor 1 (cells without a defined receptor)

Thymidine proliferation assay, proliferation index (proliferation index) [4]: 28
Substance: PBMCs of healthy donor 4 (cells without a defined receptor)
